Experimental data from patent publication US8703913B2, “Sensor” (Medical Research Council, priority 2008, dated 2014).

B1: T175H: MDCC-ParM (His6/I27C/T175H/C287A) (conjugate, UniProt P11904 1-320, looked up, variant I27C T175H C287A)
Plasmid segregation protein …: MLVFIDDGSTNIKLQWQESDGTIKQHCSPNSFKREWAVSFGDKKVFNYTLNGEQYSFDPISPDAVVTTNIAWQYSDVNVVAVHHALLTSGLPVSEVDIVCTLPLTEYYDRNNQPNTENIERKKANFRKKITLNGGDTFTIKDVKVMPESIPAGYEVLQELDELDSLLIIDLGGTHLDISQVMGKLSGISKIYGDSSLGVSLVTSAVKDALSLARTKGSSYLADDIIIHRKDNNYLKQRINDENKISIVTEAMNEALRKLEQRVLNTLNEFSGYTHVMVIGGGAELIADAVKKHTQIRDERFFKTNNSQYDLVNGMYLIGN
modifications: MDCC label; His6 tag
B2: T175N: MDCC-ParM (His6/I27C/T175N/C287A) (conjugate, UniProt P11904 1-320, looked up, variant I27C T175N C287A)
Plasmid segregation protein …: MLVFIDDGSTNIKLQWQESDGTIKQHCSPNSFKREWAVSFGDKKVFNYTLNGEQYSFDPISPDAVVTTNIAWQYSDVNVVAVHHALLTSGLPVSEVDIVCTLPLTEYYDRNNQPNTENIERKKANFRKKITLNGGDTFTIKDVKVMPESIPAGYEVLQELDELDSLLIIDLGGTNLDISQVMGKLSGISKIYGDSSLGVSLVTSAVKDALSLARTKGSSYLADDIIIHRKDNNYLKQRINDENKISIVTEAMNEALRKLEQRVLNTLNEFSGYTHVMVIGGGAELIADAVKKHTQIRDERFFKTNNSQYDLVNGMYLIGN
modifications: MDCC label; His6 tag
B3: E148R: MDCC-ParM (His6/I27C/E148R/C287A) (conjugate, UniProt P11904 1-320, looked up, variant I27C E148R C287A)
Plasmid segregation protein …: MLVFIDDGSTNIKLQWQESDGTIKQHCSPNSFKREWAVSFGDKKVFNYTLNGEQYSFDPISPDAVVTTNIAWQYSDVNVVAVHHALLTSGLPVSEVDIVCTLPLTEYYDRNNQPNTENIERKKANFRKKITLNGGDTFTIKDVKVMPRSIPAGYEVLQELDELDSLLIIDLGGTTLDISQVMGKLSGISKIYGDSSLGVSLVTSAVKDALSLARTKGSSYLADDIIIHRKDNNYLKQRINDENKISIVTEAMNEALRKLEQRVLNTLNEFSGYTHVMVIGGGAELIADAVKKHTQIRDERFFKTNNSQYDLVNGMYLIGN
modifications: MDCC label, His6 tag
B4: S9Q: MDCC-ParM (His6/S9Q/I27C/C287A) (conjugate, UniProt P11904 1-320, looked up, variant S9Q I27C C287A)
Plasmid segregation protein …: MLVFIDDGQTNIKLQWQESDGTIKQHCSPNSFKREWAVSFGDKKVFNYTLNGEQYSFDPISPDAVVTTNIAWQYSDVNVVAVHHALLTSGLPVSEVDIVCTLPLTEYYDRNNQPNTENIERKKANFRKKITLNGGDTFTIKDVKVMPESIPAGYEVLQELDELDSLLIIDLGGTTLDISQVMGKLSGISKIYGDSSLGVSLVTSAVKDALSLARTKGSSYLADDIIIHRKDNNYLKQRINDENKISIVTEAMNEALRKLEQRVLNTLNEFSGYTHVMVIGGGAELIADAVKKHTQIRDERFFKTNNSQYDLVNGMYLIGN
modifications: MDCC label; His6 tag
B5: T175A: MDCC-ParM (His6/I27C/T175A/C287A) (conjugate, UniProt P11904 1-320, looked up, variant I27C T175A C287A)
Plasmid segregation protein …: MLVFIDDGSTNIKLQWQESDGTIKQHCSPNSFKREWAVSFGDKKVFNYTLNGEQYSFDPISPDAVVTTNIAWQYSDVNVVAVHHALLTSGLPVSEVDIVCTLPLTEYYDRNNQPNTENIERKKANFRKKITLNGGDTFTIKDVKVMPESIPAGYEVLQELDELDSLLIIDLGGTALDISQVMGKLSGISKIYGDSSLGVSLVTSAVKDALSLARTKGSSYLADDIIIHRKDNNYLKQRINDENKISIVTEAMNEALRKLEQRVLNTLNEFSGYTHVMVIGGGAELIADAVKKHTQIRDERFFKTNNSQYDLVNGMYLIGN
modifications: MDCC label; His6 tag
B6: T175F: MDCC-ParM (His6/I27C/T175F/C287A) (conjugate, UniProt P11904 1-320, looked up, variant I27C T175F C287A)
Plasmid segregation protein …: MLVFIDDGSTNIKLQWQESDGTIKQHCSPNSFKREWAVSFGDKKVFNYTLNGEQYSFDPISPDAVVTTNIAWQYSDVNVVAVHHALLTSGLPVSEVDIVCTLPLTEYYDRNNQPNTENIERKKANFRKKITLNGGDTFTIKDVKVMPESIPAGYEVLQELDELDSLLIIDLGGTFLDISQVMGKLSGISKIYGDSSLGVSLVTSAVKDALSLARTKGSSYLADDIIIHRKDNNYLKQRINDENKISIVTEAMNEALRKLEQRVLNTLNEFSGYTHVMVIGGGAELIADAVKKHTQIRDERFFKTNNSQYDLVNGMYLIGN
modifications: MDCC label; His6 tag
B7: T174A: MDCC-ParM (His6/I27C/T174A/C287A) (conjugate, UniProt P11904 1-320, looked up, variant I27C T174A C287A)
Plasmid segregation protein …: MLVFIDDGSTNIKLQWQESDGTIKQHCSPNSFKREWAVSFGDKKVFNYTLNGEQYSFDPISPDAVVTTNIAWQYSDVNVVAVHHALLTSGLPVSEVDIVCTLPLTEYYDRNNQPNTENIERKKANFRKKITLNGGDTFTIKDVKVMPESIPAGYEVLQELDELDSLLIIDLGGATLDISQVMGKLSGISKIYGDSSLGVSLVTSAVKDALSLARTKGSSYLADDIIIHRKDNNYLKQRINDENKISIVTEAMNEALRKLEQRVLNTLNEFSGYTHVMVIGGGAELIADAVKKHTQIRDERFFKTNNSQYDLVNGMYLIGN
modifications: MDCC label; His6 tag
B8: S9A: MDCC-ParM (His6/S9A/I27C/C287A) (conjugate, UniProt P11904 1-320, looked up, variant S9A I27C C287A)
Plasmid segregation protein …: MLVFIDDGATNIKLQWQESDGTIKQHCSPNSFKREWAVSFGDKKVFNYTLNGEQYSFDPISPDAVVTTNIAWQYSDVNVVAVHHALLTSGLPVSEVDIVCTLPLTEYYDRNNQPNTENIERKKANFRKKITLNGGDTFTIKDVKVMPESIPAGYEVLQELDELDSLLIIDLGGTTLDISQVMGKLSGISKIYGDSSLGVSLVTSAVKDALSLARTKGSSYLADDIIIHRKDNNYLKQRINDENKISIVTEAMNEALRKLEQRVLNTLNEFSGYTHVMVIGGGAELIADAVKKHTQIRDERFFKTNNSQYDLVNGMYLIGN
modifications: MDCC label; His6 tag
B9: PcrA: DNA helicase from Bacillus stearothermophilus involved in plasmid replication (protein, UniProt P56255 1-724, looked up)
ATP-dependent DNA helicase …: MNFLSEQLLAHLNKEQQEAVRTTEGPLLIMAGAGSGKTRVLTHRIAYLMAEKHVAPWNILAITFTNKAAREMRERVQSLLGGAAEDVWISTFHSMCVRILRRDIDRIGINRNFSILDPTDQLSVMKTILKEKNIDPKKFEPRTILGTISAAKNELLPPEQFAKRASTYYEKVVSDVYQEYQQRLLRNHSLDFDDLIMTTIQLFDRVPDVLHYYQYKFQYIHIDEYQDTNRAQYTLVKKLAERFQNICAVGDADQSIYRWRGADIQNILSFERDYPNAKVILLEQNYRSTKRILQAANEVIEHNVNRKPKRIWTENPEGKPILYYEAMNEADEAQFVAGRIREAVERGERRYRDFAVLYRTNAQSRVMEEMLLKANIPYQIVGGLKFYDRKEIKDILAYLRVIANPDDDLSLLRIINVPKRGIGASTIDKLVRYAADHELSLFEALGELEMIGLGAKAAGALAAFRSQLEQWTQLQEYVSVTELVEEVLDKSGYREMLKAERTIEAQSRLENLDEFLSVTKHFENVSDDKSLIAFLTDLALISDLDELDGTEQAAEGDAVMLMTLHAAKGLEFPVVFLIGMEEGIFPHNRSLEDDDEMEEERRLAYVGITRAEEELVLTSAQMRTLFGNIQMDPPSRFLNEIPAHLLETASRRQAGASRPAVSRPQASGAVGSWKVGDRANHRKWGIGTVVSVRGGGDDQELDIAFPSPIGIKRLLAKFAPIEKV

What was measured:
[1] = Fluorescence titration of labeled ParM with ATP; assay type: binding; details: Table 2; for ATP F+ATP/F−ATP: MDCC-ParM mutants; for ATP F+ATP/F−ATP / Kd: 20° C.; for Kd: highly purified ATP containing only 0.03% ADP
Method: The MDCC fluorescence was excited at 431 nm and emission was recorded at 474 nm. The equilibrium dissociation constants were determined by fitting a quadratic binding curve to the data. For the plot the experimental fluorescence intensities were converted to the nucleotide bound fraction of ParM.
(§1) The equilibrium dissociation constants were determined by fitting a quadratic binding curve to the data and are listed in Table Y. For the plot the experimental fluorescence intensities were normalized to the maximal fluorescence change obtained at saturation with ADP.
ADP and ATP were purchased from Sigma at the highest purity available. The purity of the nucleotides was analysed by HPLC using a Partisphere SAX column, 125×4.5 mm (Whatman). Nucleotide separation was performed isocratic with 0.3 M (NH4)2HPO4 buffer pH 4.0, 25% MeOH, and the absorbance at 260 nm was monitored.
(§2) [formula] where [P] and [L] are the total concentrations of protein and ligand, respectively, Kd is the dissociation constant and Fmin and Fmax are the fluorescence intensities of the free and ligand bound protein.
(§3) Fluorescence spectra and titrations were measured in a Cary Eclipse spectrofluorimeter (Varian). Excitation and emission spectra were recorded with 5 nm slit width at emission and excitation wavelength of 576 nm and 553 nm, respectively. In titration experiments rhodamine fluorescence was measured at the same excitation/emission wavelength. Titration data were analyzed with a quadratic binding curve using the program Grafit 5.0 (7).

[2] = Fluorescence titration of labeled ParM with ADP; assay type: binding; details: Table 2, 20° C.; for ADP F+ADP/F−ADP: MDCC-ParM mutants; for Kd: fluorescence titration
Method: MDCC fluorescence was excited at 431 nm and detected at 474 nm, for the rhodamine-labeled proteins, excitation and emission wavelengths of 553 nm and 578 nm were used. […] The fraction of ParM bound to ADP was calculated from the fluorescence intensities.
The MDCC fluorescence was excited at 431 nm and emission was recorded at 474 nm. The equilibrium dissociation constants were determined by fitting a quadratic binding curve to the data.
as §1, §2, §3

[3] = Stopped-flow kinetics of ADP binding and dissociation; details: Table 3
PcrA helicase = PcrA helicase (Geobacillus stearothermophilus, UniProt P56255); test: Steady-state ATP hydrolysis by PcrA helicase monitored with the biosensor; assay type: biochemical, Bacillus stearothermophilus; details: for initial rate of ADP generation: 3.8 μM dT16, 10 μM MDCC-ParM, 20° C.
[4] = 2 nM PcrA, 0.5 μM dT20, 5 μM MDCC-ParM, set of calibration curves
[5] = measured with phosphate biosensor MDCC-PBP

Row | Molecule | Kd ratio ATP/ADP [1] | ATP F+ATP/F−ATP [1] | Kd [1] | ADP F+ADP/F−ADP [2] | Kd [2] | other results
1 | B1 | 0.4 | 3.9 | 0.16 µM | 3.2 | 0.4 µM | –
2 | B2 | 307 | 3.2 | 184 µM | 3.4 | 0.6 µM | kon ([3]; ADP association, stopped-flow, 20° C.): 640000 M⁻¹ s⁻¹; Kd ([3]; calculated as koff/kon): 0.42 µM; koff ([3]; displacement with unlabeled ParM, 20° C.): 0.27 s⁻¹
3 | B3 | – | <1.1 | – | <1.1 | – | –
4 | B4 | 40 | 2.8 | 66 µM | 3.2 | 1.66 µM | –
5 | B5 | 168 | 3.3 | 62 µM | 3.3 | 0.37 µM | –
6 | B6 | 29 | 2.5 | 137 µM | 2.5 | 4.7 µM | –
7 | B7 | 164 | 3.1 | 64 µM | 2.9 | 0.39 µM | –
8 | B8 | 39 | 2.9 | 98 µM | 3.1 | 2.5 µM | –
9 | B9 | – | – | – | – | – | initial rate of ADP generation (PcrA helicase; 1 nM PcrA, 5 μM ATP): 10.4 nM/s; Km (PcrA helicase; [4]): 1.6 µM; kcat (PcrA helicase; [4]): 13.7 s⁻¹; initial rate of ADP generation (PcrA helicase; 2 nM PcrA, 5 μM ATP): 19.9 nM/s; kcat (PcrA helicase; calibration at 15 μM total nucleotide concentration): 14.0 s⁻¹; kcat (PcrA helicase; calibration in the absence of ATP): 12.2 s⁻¹; steady state hydrolysis activity (PcrA helicase; measured with MDCC-ParM, 5 μM ATP, background subtracted): 6.8 s⁻¹; Km (PcrA helicase; [5]): 1.7 µM; kcat (PcrA helicase; [5]): 11.5 s⁻¹; steady state hydrolysis activity (PcrA helicase; [5]): 7.2 s⁻¹; Michaelis-Menten constant for ATP (PcrA helicase; single calibration used for all ATP concentrations): 1.4 µM
